Laboratory results reported in US20090130676.

Test system: His6-aptamers (peptide aptamers of FIGS. 4A and 4B, purified)

## Cdk2/Cyclin E kinase
  phosphorylation of Histone H1 by Cdk2/Cyclin E kinase: All tested aptamers were able to inhibit phosphorylation of Histone H1 by Cdk2/Cyclin E kinase
